Reference: patent US20140234336A1

Assays:
Assay in all cases: cell-based or functional assay
[1] = biological target: HA of H3N2 influenza virus A/Beijing/353/89-X109 (influenza A virus H3N2 A/Beijing/353/89-X109)
[2] = biological target: HA of H3N2 influenza virus A/Nanchang/933/95 (influenza A virus H3N2 A/Nanchang/933/95)
[3] = biological target: HA of H9N2 influenza virus A/Green-winged teal/209/TX/2009 (influenza A virus H9N2 A/Green-winged teal/209/TX/2009)
[4] = biological target: HA of H3N2 influenza virus A/Panama/2007/99 (influenza A virus H3N2 A/Panama/2007/99)
[5] = biological target: HA of H3N2 influenza virus A/Hong Kong/68 (influenza A virus H3N2 A/Hong Kong/68)
[6] = biological target: HA of H3N2 influenza virus A/Brisbane/10/07 (influenza A virus H3N2 A/Brisbane/10/07)
[7] = biological target: HA of H2N2 influenza virus A/Ann Arbor/6/60, CA (influenza A virus H2N2 A/Ann Arbor/6/60, CA)
[8] = biological target: HA of H3N2 influenza virus A/Wisconsin/67/05 (influenza A virus H3N2 A/Wisconsin/67/05)
[9] = biological target: HA of H3N2 influenza virus A/Sydney/5/97 (influenza A virus H3N2 A/Sydney/5/97)
[10] = biological target: HA of H3N2 influenza virus A/Johannesburg/33/94 R-H3 (influenza A virus H3N2 A/Johannesburg/33/94 R-H3)
[11] = biological target: HA of H3N2 influenza virus A/Beijing/32/92-R-H3 (influenza A virus H3N2 A/Beijing/32/92-R-H3)
[12] = biological target: HA of H1N1 influenza virus A/OH/07/2009 (influenza A virus H1N1 A/OH/07/2009)

## CT149 antibody
[1]
  MN titer: 0.156 µg/mL
[2]
  MN titer: 0.625 µg/mL
[3]
  MN titer: 0.156 µg/mL
[4]
  MN titer: 0.312 µg/mL
[5]
  MN assay: lowest antibody concentration at which no virus antigen was detected: 2.5 µg/mL
[6]
  MN assay: lowest antibody concentration at which no virus antigen was detected: 1.25 µg/mL
  MN titer: 0.625 µg/mL
[7]
  MN titer: > 20 µg/mL
[8]
  MN assay: lowest antibody concentration at which no virus antigen was detected: 1.25 µg/mL
[9]
  MN titer: 0.625 µg/mL
[10]
  MN titer: 0.625 µg/mL
[11]
  MN titer: 0.078 µg/mL
[12]
  MN titer: 10 µg/mL
